Positions count from the first letter of the chain named. Numbers in names are those of the source.
B1: WT GPRC5D expressed on HEK293T cells, Q9NZD1 E83G; L84G (protein)
chain: MYKDCIESTGDYFLLCDAEGPWGIILESLAILGIVVTILLLLAFLFLMRKIQDCSQWNVLPTQLLFLLSVLGLFGLAFAFIIGGNQQTAPVRYFLFGVLFALCFSCLLAHASNLVKLVRGCVSFSWTTILCIAIGCSLLQIIIATEYVTLIMTRGMMFVNMTPCQLNVDFVVLLVYVLFLMALTFFVSKATFCGPCENWKQHGRLIFITVLFSIIIWVVWISMLLRGNPQFQRQPQWDDPVVCIALVTNAWVFLLLYIVPELCILYRSCRQECPLQGNACPVTAYQHSFQVENQELSRARDSDGAEEDVALTSYGTPIQPQTVDPTQECFIPQAKLSPQQDAGGV
B2: WT GPRC5D expressed on HEK293T cells, Q9NZD1 S8G; D11G; L15G; C16G; D17G (protein)
chain: B1 chain with S8G, D11G, L15G, C16G, D17G, G83E, G84L
B3: WT GPRC5D expressed on HEK293T cells, Q9NZD1 R154G; V159G; N160G; T162G; P163G; L166G (protein)
chain: B1 chain with G83E, G84L, R154G, V159G, N160G, T162G, P163G, L166G
B4: WT GPRC5D expressed on HEK293T cells, Q9NZD1 P235G; Q236G (protein)
chain: B1 chain with G83E, G84L, P235G, Q236G
B5: WT GPRC5D expressed on HEK293T cells, Q9NZD1 S8G; D11G; L15G; C16G; D17G; E83G; L84G; R154G; V159G; N160G; T162G; P163G; L166G; P235G; Q236G (protein)
chain: MYKDCIEGTGGYFLGGGAEGPWGIILESLAILGIVVTILLLLAFLFLMRKIQDCSQWNVLPTQLLFLLSVLGLFGLAFAFIIGGNQQTAPVRYFLFGVLFALCFSCLLAHASNLVKLVRGCVSFSWTTILCIAIGCSLLQIIIATEYVTLIMTGGMMFGGMGGCQGNVDFVVLLVYVLFLMALTFFVSKATFCGPCENWKQHGRLIFITVLFSIIIWVVWISMLLRGNPQFQRQGGWDDPVVCIALVTNAWVFLLLYIVPELCILYRSCRQECPLQGNACPVTAYQHSFQVENQELSRARDSDGAEEDVALTSYGTPIQPQTVDPTQECFIPQAKLSPQQDAGGV
B6: WT GPRC5D expressed on HEK293T cells, Q9NZD1 E83A (protein)
chain: B1 chain with G83A, G84L
B7: WT GPRC5D expressed on HEK293T cells, Q9NZD1 S8A (protein)
chain: B1 chain with S8A, G83E, G84L
B8: WT GPRC5D expressed on HEK293T cells, Q9NZD1 T9A (protein)
chain: B1 chain with T9A, G83E, G84L
B9: WT GPRC5D expressed on HEK293T cells, Q9NZD1 P235A (protein)
chain: B1 chain with G83E, G84L, P235A
B10: WT GPRC5D expressed on HEK293T cells, Q9NZD1 Q236A (protein)
chain: B1 chain with G83E, G84L, Q236A
B11: WT GPRC5D expressed on HEK293T cells, Q9NZD1 C16A (protein)
chain: B1 chain with C16A, G83E, G84L
B12: WT GPRC5D expressed on HEK293T cells, Q9NZD1 L15A (protein)
chain: B1 chain with L15A, G83E, G84L
B13: WT GPRC5D expressed on HEK293T cells, Q9NZD1 D11A (protein)
chain: B1 chain with D11A, G83E, G84L

What follows are binders tested against IgG150-18 (scFv150-18 cloned into human IgG format) (assay: FACS assay on cells). Conditions: chain shown with the change; highest antibody concentration point, Log [IgG150_18] (M) about -7.5; parent: est. 100; read off a plot.
Chain of IgG150-18 (scFv150-18 cloned into human IgG format) (chain, as listed by the source, chain 1 of 2): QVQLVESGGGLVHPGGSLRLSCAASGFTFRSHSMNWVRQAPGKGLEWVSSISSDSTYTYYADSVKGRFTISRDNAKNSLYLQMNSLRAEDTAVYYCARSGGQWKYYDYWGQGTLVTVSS
Chain of IgG150-18 (scFv150-18 cloned into human IgG format) (chain, as listed by the source, chain 2 of 2): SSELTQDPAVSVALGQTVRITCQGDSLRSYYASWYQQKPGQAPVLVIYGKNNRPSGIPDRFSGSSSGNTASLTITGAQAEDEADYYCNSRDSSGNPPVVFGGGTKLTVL

Row | percent of parent | Binder
1 | 97 % of WT | B1
2 | 3 % of WT | B2
3 | 82 % of WT | B3
4 | 100 % of WT | B4
5 | 12 % of WT | B5

The binders below were run against IgG150-18 (scFv150-18 cloned into human IgG format) (assay: FACS binding assay). Conditions: chain shown with the change; 1nM antibody; parent: est. 8; read off a plot.

Row | percent of parent | Binder
6 | 5 % of WT | B6
7 | 3 % of WT | B7
8 | 11 % of WT | B8

Same assay, conditions: chain shown with the change; 10nM antibody; parent: est. 75; read off a plot

Row | percent of parent | Binder
9 | 72 % of WT | B6
10 | 65 % of WT | B7
11 | 82 % of WT | B8
12 | 43 % of WT | B9
13 | 53 % of WT | B10
14 | 1 % of WT | B11
15 | 38 % of WT | B12
16 | 1 % of WT | B5

Same assay, conditions: chain shown with the change; 100nM antibody; parent: est. 100; read off a plot

Row | percent of parent | Binder
17 | 95 % of WT | B6
18 | 92 % of WT | B7
19 | 42 % of WT | B13
20 | 100 % of WT | B8
21 | 95 % of WT | B9
22 | 75 % of WT | B10
23 | 63 % of WT | B12

From publication PMC11187071
